Laboratory results from patent US20180057590A1 (VAL CHUM LIMITED PARTNERSHIP, published 2018).

Target: T1, human Dual Ig domain containing cell adhesion molecule (DICAM) (human, UniProt Q9BRK3 20-442)
T1 construct: Assayed as endogenous DICAM of THP-1 cells and TH17 lymphocytes, and as human DICAM from vector pCMV6-neo-DICAM in NIH3T3 and NS0 cells; It stood on the cell surface in flow cytometry and in cell lysate in Western blot; also called limitrin; Matrix-remodeling-associated protein 8
T1 sequence: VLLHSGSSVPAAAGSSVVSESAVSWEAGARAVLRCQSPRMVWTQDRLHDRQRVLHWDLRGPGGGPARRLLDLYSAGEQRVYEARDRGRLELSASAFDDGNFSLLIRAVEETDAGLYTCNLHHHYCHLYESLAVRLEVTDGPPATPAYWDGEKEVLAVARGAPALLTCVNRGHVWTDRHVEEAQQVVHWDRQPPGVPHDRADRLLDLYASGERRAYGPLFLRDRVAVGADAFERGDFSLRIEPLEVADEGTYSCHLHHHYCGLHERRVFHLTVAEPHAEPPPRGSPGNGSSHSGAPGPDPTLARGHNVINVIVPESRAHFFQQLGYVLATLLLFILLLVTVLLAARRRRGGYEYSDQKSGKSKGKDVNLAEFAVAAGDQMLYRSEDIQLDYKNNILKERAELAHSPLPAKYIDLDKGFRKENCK
Assay: Western blot (Table III)
Description: THP-1 cells express DICAM as determined by qPCR and confirmed by WB (see Jung et al., Journal of Bone and Mineral Research, Vol. 27, No. 9, pp 2024-2034, 2012). THP-1 cell lysate (30 μg) were loaded on 12% SDS-PAGE gel and electrophoresed for 90 min at 100V and transferred to PVDF membranes. Hybridoma from clone 3C2, 2C11, 2H12, 9E9 and 1B2 (N-terminal DICAM epitope 57-71) or from clone 7F8, 1D9, 4B8 and 1D4 (C-terminal DICAM epitope 372-385) were incubated at 4° C. (50 μg/ml) for 12 h. Secondary antibody is goat anti-mouse pan-IgG coupled to HRP (1/2000 dilution). Actin is shown as a loading control. N=4
Characterization of anti-DICAM antibodies by Western blot THP-1 and NIH3T3 cells transfected with human DICAM-encoding vector (pCMV6-neo) or with empty vector (pCMV6-neo) cell lysate ([…]) were loaded on 12% SDS-PAGE gel and electrophoresed for 90 min at 100V and transferred to PVDF membranes. […] N=4 by standard SDS-PAGE and immunoblots were analyzed with anti-DICAM (Goat; 1:100 dilution; sc-163102; Santa Cruz Biotechnology®); horseradish peroxidase-conjugated anti-goat (1:1,000 dilution; P00448; DakoCytomation®) and the ECL system (Amersham Biosciences®) were used to detect specific binding, and anti-actin (1:5,000 dilution; AC-15; MP Biomedicals®) served as a loading control. […]

B1: anti-DICAM monoclonal antibody clone 9E9 (antibody, mouse IgG1, V domains shown)
VH: EVQLVESGGGLVKPGGSLKLSCAASGFTFISYAMSWVRQTPEKRLEWVATISSGGSYTYYPHSVKGRFTISRDNARNTLYLQMSSLRSEDTAMYYCARLDGPSYAMDYWGQGTSVTVS
VL: QIVLTQSPAIMSAFLGEEITLTCSASSSVSYMHWYQQKSGTSPKLLIYSTSNLASGVPSRFSGSGSGTFYSLTISSVEAEDAADYYCHQWSSYRTFGGGTKLEIKR
notes: Mouse hybridoma antibody, murine IgG1 heavy chain and kappa light chain; also called mAb clone 9E9; hybridoma clone 9E9
binding result: binds
